Reference: patent publication US20110190477A1 (G2 INFLAMMATION, published 2011)
No end group written: not given here. *: point of attachment. Biotin = O=C1N[C@H]2[C@H](CS[C@H]2CCCCC(=O)*)N1

T1: human C5a receptor (human, UniProt P21730 1-350)
T1 chain: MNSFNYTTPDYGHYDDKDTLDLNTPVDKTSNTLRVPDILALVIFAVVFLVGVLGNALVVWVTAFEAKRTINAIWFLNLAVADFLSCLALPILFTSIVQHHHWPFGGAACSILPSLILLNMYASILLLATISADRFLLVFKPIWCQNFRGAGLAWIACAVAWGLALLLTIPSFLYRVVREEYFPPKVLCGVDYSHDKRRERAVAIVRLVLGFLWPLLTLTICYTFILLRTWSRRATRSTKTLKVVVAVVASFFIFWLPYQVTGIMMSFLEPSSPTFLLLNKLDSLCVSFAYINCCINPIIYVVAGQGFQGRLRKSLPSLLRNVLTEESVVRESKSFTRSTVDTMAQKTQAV

T2: peptide 9 (12 mer from the 2nd extracellular loop of human C5aR) (human)
T2 construct: worked out from 22 12 mers offset by one over 173-205; also called peptide no
T2 peptide: Biotin-SGSGYFPPKVLCGVDY

T3: peptide 22 (12 mer from the 2nd extracellular loop of human C5aR) (human)
T3 construct: worked out from 22 12 mers offset by one over 173-205; also called peptide no; 22
T3 peptide: Biotin-SGSGHDKRRERAVAIV

T4: peptide 17 (12 mer from the 2nd extracellular loop of human C5aR) (human)
T4 construct: worked out from 22 12 mers offset by one over 173-205; also called peptide no; 17
T4 peptide: Biotin-SGSGGVDYSHDKRRER

T5: peptide 8 (12 mer from the 2nd extracellular loop of human C5aR) (human)
T5 construct: worked out from 22 12 mers offset by one over 173-205; also called peptide no
T5 peptide: Biotin-SGSGEYFPPKVLCGVD

T6: peptide 11 (12 mer from the 2nd extracellular loop of human C5aR) (human)
T6 construct: worked out from 22 12 mers offset by one over 173-205; also called peptide no; 11
T6 peptide: Biotin-SGSGPPKVLCGVDYSH

T7: peptide 12 (12 mer from the 2nd extracellular loop of human C5aR) (human)
T7 construct: worked out from 22 12 mers offset by one over 173-205; also called peptide no; 12
T7 peptide: Biotin-SGSGPKVLCGVDYSHD

T8: peptide 21 (12 mer from the 2nd extracellular loop of human C5aR) (human)
T8 construct: worked out from 22 12 mers offset by one over 173-205; also called peptide no; 21
T8 peptide: Biotin-SGSGSHDKRRERAVAI

T9: peptide 18 (12 mer from the 2nd extracellular loop of human C5aR) (human)
T9 construct: worked out from 22 12 mers offset by one over 173-205; also called peptide no; 18
T9 peptide: Biotin-SGSGVDYSHDKRRERA

B1: mouse anti-C5aR monoclonal antibody 7F3 (antibody, V domains shown)
VH: QVQLQQSGPELVKPGASVKISCKASGYAFSNSWMNWVKQRPGKGLEWIGRIYPGDGDTKYNGKFKGKATLTADKSSSTAYMQLSSLTSEDSAVYFCARFLLISTVTAVDYWGQGTTLTVSS
VL: DVVMTQSPLSLPVSLGNQASISCRSSQSLVHSNGNTYLHWYLQKPGQSPKLLIYKVSNRFSGVPDRFSGSGSGTDFSLKISRVEAEDLGVYFCSQSTLVPLTFGAGTKLELK
notes: Mouse monoclonal from hybridoma ECACC 00110609; also called m7F3; mouse 7F3
B2: humanized anti-C5aR antibody hAb-Q (antibody, human IgG4 S228P, kappa)
light: DVVMTQSPLSLPVTLGEPASISCRSSQSLVHSNGNTYLHWYLQKPGQSPQLLIYKVSNRFSGVPDRFSGSGSGTDFTLKISRVEAEDVGVYFCSQSTLVPLTFGQGTKLEIKRTVAAPSVFIFPPSDEQLKSGTASVVCLLNNFYPREAKVQWKVDNALQSGNSQESVTEQDSKDSTYSLSSTLTLSKADYEKHKVYACEVTHQGLSSPVTKSFNRGEC
heavy: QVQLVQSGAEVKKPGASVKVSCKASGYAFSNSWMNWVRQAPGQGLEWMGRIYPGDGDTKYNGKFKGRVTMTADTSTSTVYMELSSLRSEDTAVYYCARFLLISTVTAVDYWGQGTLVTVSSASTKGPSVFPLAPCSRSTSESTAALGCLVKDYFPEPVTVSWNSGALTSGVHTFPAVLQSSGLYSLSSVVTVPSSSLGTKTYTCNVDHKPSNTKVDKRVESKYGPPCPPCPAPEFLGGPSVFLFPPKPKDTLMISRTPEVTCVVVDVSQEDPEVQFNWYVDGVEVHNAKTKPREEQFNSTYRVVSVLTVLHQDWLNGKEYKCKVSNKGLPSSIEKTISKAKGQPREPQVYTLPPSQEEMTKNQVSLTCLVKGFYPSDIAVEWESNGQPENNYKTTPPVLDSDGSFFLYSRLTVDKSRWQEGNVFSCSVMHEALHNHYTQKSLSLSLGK
notes: IgG4 with the Ser228Pro mutation; also called antibody Q; anti-C5aR ab
B3: humanized anti-C5aR antibody hAb-J (antibody, human IgG4 S228P, kappa)
light: DVVMTQSPLSLPVTLGEPASISCRSSQSLVHSNGNTYLHWYLQKPGQSPQLLIYKVSNRFSGVPDRFSGSGSGTDFTLKISRVEAEDVGVYFCSQSTLVPLTFGQGTKLEIKTVAAPSVFIFPPSDEQLKSGTASVVCLLNNFYPREAKVQWKVDNALQSGNSQESVTEQDSKDSTYSLSSTLTLSKADYEKHKVYACEVTHQGLSSPVTKSFNRGEC
heavy: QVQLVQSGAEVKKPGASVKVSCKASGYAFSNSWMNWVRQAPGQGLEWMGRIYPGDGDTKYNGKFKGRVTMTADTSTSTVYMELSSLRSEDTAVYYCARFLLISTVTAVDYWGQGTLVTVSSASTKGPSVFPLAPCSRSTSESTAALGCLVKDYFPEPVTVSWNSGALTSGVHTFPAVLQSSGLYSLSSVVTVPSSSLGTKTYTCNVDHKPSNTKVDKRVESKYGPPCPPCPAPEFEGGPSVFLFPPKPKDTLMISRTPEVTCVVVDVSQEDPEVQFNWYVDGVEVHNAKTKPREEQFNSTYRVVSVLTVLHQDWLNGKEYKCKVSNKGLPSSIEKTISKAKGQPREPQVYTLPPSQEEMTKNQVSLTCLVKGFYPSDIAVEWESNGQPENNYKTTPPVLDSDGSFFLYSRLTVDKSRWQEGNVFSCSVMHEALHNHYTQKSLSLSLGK
notes: also called antibody J

Columns and labels:
human C5a receptor = target: T1, human C5a receptor; test: cell-based or functional assay
[1] = target: T2, peptide 9 (12 mer from the 2nd …); test: peptide ELISA, biotin peptide on streptavidin plate
Excerpt: (§1) A set of 22 overlapping peptides (12 mers), each offset by 1 residue from the next, spanning the second extracellular loop (3rd extracellular domain) of human C5aR was synthesised (Mimotopes, Melbourne). Each peptide was made with a biotin group and 4-amino acid linker (SGSG) at its N-terminus. One peptide synthesised, no. 23, was a 33 mer, representing the full length of the 2nd extracellular loop of hC5aR (residues 173-205 from SEQ ID NO:37), also had biotin-SGSG at the N-terminus.
(§2) The experiment was conducted by binding the peptides to a 384-well streptavidin-coated plate then incubating the antibodies with the peptides and detecting bound antibody with an anti-mouse IgG conjugated to horse radish peroxidase (HRP) as follows. Each peptide was dissolved in 200 μl of 60% DMSO to a concentration of 10 mg/ml. Peptides were further diluted 1:1000 to a working strength of 10 μg/ml with PBS/Tween 20/azide solution (0.1% w/v sodium azide in PBS/0.05% Tween 20).
(§3) A 384 well streptavidin-coated plate (Nunc) was blocked with 20 μl of blocking buffer (1% w/v BSA in PBS) per well. The plate was washed 4 times with PBS/Tween20 buffer (0.1% v/v Tween 20 in PBS). 20 μl of diluted peptide solution was transferred into a well and the plate incubated for 1 hour at room temperature. After washing the plate 4 times (as above) 20 μl antibody (0.5, 1, 1.25, 2.5 or 5 μg/ml) was added to the well and the plate was incubated for 1 hour at 20° C. The plate was washed 4 times as above then 20 μlHRP-conjugated anti-mouse IgG (1:5000 dilution in PBS/Tween 20) was added to each well. After a 1 hour incubation at room temperature the plate was washed 3 times (as above) then twice with PBS to remove traces of Tween. The presence of peroxidase was detected by adding 20 μl of freshly prepared TMB Substrate reagent (BD Opt EIA) to each well and incubating at room temperature for 20 min. Finally the plate was read at 650 nm/450 nm.

[2] = target: T3, peptide 22 (12 mer from the 2nd …); test: as above
Excerpt: as §1, §2, §3

[3] = target: T4, peptide 17 (12 mer from the 2nd …); test: as above
Excerpt: as §1, §2, §3

[4] = target: T5, peptide 8 (12 mer from the 2nd …); test: as above
Excerpt: as §1, §2, §3

[5] = target: T6, peptide 11 (12 mer from the 2nd …); test: as above
Excerpt: as §1, §2, §3

[6] = target: T7, peptide 12 (12 mer from the 2nd …); test: as above
Excerpt: as §1, §2, §3

[7] = target: T8, peptide 21 (12 mer from the 2nd …); test: as above
Excerpt: as §1, §2, §3

[8] = target: T9, peptide 18 (12 mer from the 2nd …); test: as above
Excerpt: as §1, §2, §3

Row | Binder | IC50, C5a-induced migration of hC5aR/L1.2 cells (human C5a receptor) | antibody concentration that completely blocked migration of human neutrophils induced by 10 nM C5a (human C5a receptor) | antibody concentration that completely inhibited hC5aR/L1.2 transfectant migration (human C5a receptor) | blocking of human neutrophil migration towards C5a at 5 µg/ml antibody (human C5a receptor) | binding result [1] | binding result [2] | binding result [3] | binding result [4] | binding result [5] | binding result [6] | binding result [7] | binding result [8] | EC50 for inhibition of C5a-induced human neutrophil migration (human C5a receptor) | IC50, prevention of C5a-induced CD11b up-regulation on neutrophils in whole human blood (100 nM C5a) (human C5a receptor) | IC50, prevention of C5a-induced loss of CD62L on neutrophils in whole human blood (100 nM C5a) (human C5a receptor)
1 | B1 | 0.5 µg/mL | 10 µg/mL | 5 µg/mL | 97% | no binding | no binding | no binding | no binding | no binding | no binding | no binding | no binding | – | – | –
2 | B2 | 0.7 µg/mL | – | 5 µg/mL | – | no binding | no binding | no binding | no binding | no binding | no binding | no binding | no binding | 0.03 µg/mL | ~10.7 µg/mL | ~5.4 µg/mL
3 | B3 | 0.6 µg/mL | – | 5 µg/mL | 82% | no binding | no binding | no binding | no binding | no binding | no binding | no binding | no binding | – | – | –
